Test [1] concerns the target PT linker-SpyCatcher-His (Streptococcus pyogenes). The test can be described thus: depletion of SpyTag-GA (10 mg/g carrier) from E. coli lysate supernatant, SDS-PAGE densitometry; SpyCatcher on ECR8204 epoxy carrier.
For test [2] the target is unchanged. The test can be described thus: depletion of SpyTag-GA (10 mg/g carrier) from E. coli lysate supernatant, SDS-PAGE densitometry; SpyCatcher on ECR8285 epoxy carrier.
Test [3] has the same target. The test can be described thus: depletion of SpyTag-GA (10 mg/g carrier) from E. coli lysate supernatant, SDS-PAGE densitometry; SpyCatcher on LX-1000EP epoxy carrier.
The target is the same in test [4]. The test can be described thus: depletion of SpyTag-GA (15 mg/g resin) from supernatant, conditions of Example 4.3; SpyCatcher modified epoxy carrier, batch 2.
For test [5] the target is unchanged. The test can be described thus: depletion of purified SpyTag-GA (15 mg/g carrier) from supernatant, SDS-PAGE densitometry; SpyCatcher-LX-1000EP; pH 7.0, 25 C, 2 h.
The target is the same in test [6]. The test can be described thus: depletion of SpyTag-GA (10 mg/g carrier) from E. coli lysate supernatant, SDS-PAGE densitometry; SpyCatcher on LX-103B epoxy carrier.
Test [7] shares this target. The test can be described thus: depletion of SpyTag-GA (2.0 mg/g carrier) from E. coli lysate supernatant, SDS-PAGE densitometry; SpyCatcher-LX-1000EP; pH 7.0, 25 C, 2 h.
The target is the same in test [8]. Put plainly: depletion of SpyTag-GA (15 mg/g resin) from supernatant, conditions of Example 4.3; SpyCatcher modified epoxy carrier, batch 4.
Test [9] shares this target. Put plainly: depletion of SpyTag-GA (15 mg/g resin) from supernatant, conditions of Example 4.3; SpyCatcher modified epoxy carrier, batch 3.
Test [10] shares this target. The test can be described thus: depletion of SpyTag-GA (15 mg/g resin) from supernatant, conditions of Example 4.3; SpyCatcher modified epoxy carrier, batch 1.
Test [11] has the same target. The test can be described thus: depletion of SpyTag-GA (10 mg/g carrier) from E. coli lysate supernatant, SDS-PAGE densitometry; SpyCatcher on LX-107S epoxy carrier (blocking control without SpyCatcher 72.5).
For test [12] the target is unchanged. Put plainly: depletion of SpyTag-GA (10 mg/g carrier) from E. coli lysate supernatant, SDS-PAGE densitometry; SpyCatcher on HFA001 epoxy carrier.
Test [13] shares this target. The test can be described thus: depletion of SpyTag-GA (15 mg/g resin) from supernatant, conditions of Example 4.3; SpyCatcher modified epoxy carrier, batch 5.

In the case of “SpyTag-GS linker-GA-His fusion protein of a SpyTag and glutaryl-7-amidocephalosporanic acid acylase (from UniProt P07662 30-720) (enzyme)”, the Immobilization Efficiency (%) was 52.1% in [1]; 57.4% in [2]; 77.6% in [3]; 92.2% in test [4]; 91.5% in test [5]; 77% in test [6]. Moreover, the Immobilization Efficiency (%) in [7] worked out at 86.2%; in test [8], 86.6%; in test [9] it was 90.9%; in test [10], 94.7%; in [11], 49.1%; in [12] it was 79.4%. For the same substance, the Immobilization Efficiency (%) in [13] came out at 96.9%.

These data come from patent US20240317895A1.
